We go through five molecules from US9121022B2, “Method for controlling herbicide-resistant plants” (priority 2010, dated 2015).

Format in all cases: in vivo
For series [1], the system named is Glyphosate-resistant Palmer amaranth plants having 49 or 63 copies EPSPS. Description: salicylic acid pretreatment before dsRNA and glyphosate (Example 15). The conditions noted are these: 15 millimolar SA 1, 5, or 24 hours before dsRNA; 7 days after glyphosate. The procedure:
Salicylic acid (SA) induces virus resistance in tobacco; see, e.g., Chivasa et al. (1997) Plant Cell, 19:547-557. Glyphosate-resistant Palmer amaranth plants having 49 or 63 copies EPSPS were pretreated with 15 millimolar SA. A solution of the four oligonucleotide-size “short” EPSPS dsRNA molecules (described in Example 1) was applied by hand at 1, 5, or 24 hours after treatment with SA, followed 72 hours later by spraying with glyphosate (1682 g acid equivalent per hectare of Roundup® WeatherMAX® brand herbicide).

For series [2], the system named is glyphosate-resistant Palmer amaranth plants having 16 copies of EPSPS. Description: EPSPS tiling-segment polynucleotides, plant height 11 days after herbicide (Example 21). The conditions noted are these: 0.01 nanomole DNA/plant; glyphosate 840 g ae/ha 48 hours later. From the text: Twelve dsRNAs of approximately 250 bp each and having one strand of the dsRNA corresponding to the EPSPS tiled DNA sequences of SEQ ID NOS:41-52 (Table 8) were designed to cover in a tiling fashion the full coding sequence and part of the 5′ and 3′ untranslated regions of the Palmer amaranth EPSPS gene, as depicted in FIG. 25A.
The four oligonucleotide-size “short” EPSPS dsRNA molecules as described in Example 1 and FIG. 1 are located in the tiling segments 2, 3, 4, and 8 respectively, and are shown as light grey bars within those segments. The polynucleotides were synthesized in vitro transcription using a pBR322 vector with the EPSPS polynucleotides inserted at EcoRI and BamHI cloning sites; plasmid DNA was isolated with Qiagen Maxi prep kits and digested with EcoRI and BamHI restriction enzymes. The digested DNA solution was used in the treatment of the plants without further purification. […]

The subject of series [3] is Glyphosate-sensitive Palmer amaranth (Amaranthus palmeri) plants. Description: HPPD, PPO and TIF anti-sense ssDNA with mesotrione, fomesafen or atrazine, plant height (Example 28, Tables 18 and 19). The conditions noted are these: four days after herbicide treatment. The procedure:
The herbicidal activity of ssDNA polynucleotides that target the enzymes […] and protoporphyrinogen oxidase (PPO), and a transcription initiation factor (TIF), and their effect on the herbicide activity when used in combination with the herbicides mesotrione, fomesafen, and atrazine in Palmer amaranth was investigated.
Glyphosate-sensitive Palmer amaranth (Amaranthus palmeri) plants were grown in 4-inch square pots with Sun Gro® Redi-Earth seedling mix containing 3.5 kg/cubic meter Osmocote® 14-14-14 fertilizer in a greenhouse with 14 h photoperiod and a daytime temperature of 30 degrees Celsius and night temperature of 20 degrees Celsius. The plants were sub-irrigated as necessary.
Some plants were left untreated and were used as controls. […] Crop oil concentrate (COC) at 1% was added to all herbicide treatments.
Plant height was determined at four days after herbicide treatment. Data were collected from one experiment with four replications per treatment.

For series [4], the system named is phytoene desaturase (PDS) gene in tomato (Solanum lycopersicum). Kind of series: topical PDS dsRNA on tomato, bleaching and stunting (Example 25). The conditions noted are these: 2.5 micromolar, 40 microliters per plant. The text has this:
A 201 nucleotide dsRNA polynucleotide with an anti-sense strand capable of hybridizing to the RNA encoded by the sequence […] […] […] (SEQ ID NO:60) which correspond to the nucleotides at positions 1724-1923 of the mRNA transcribed from the tomato PDS gene sequence (SEQ ID NO:59) was synthesized by RT PCR using oligonucleotide primers with the sequences […] (SEQ ID NO:61, sense primer) and […] (SEQ ID NO:62, anti-sense primer). A 2.5 micromolar dsRNA solution was made with the 201 nucleotide dsRNA polynucleotide (SEQ ID NO:60) in 0.01% SILWET L-77® brand surfactant in 5 millimolar sodium phosphate buffer, pH 6.8.
Three-week old tomato seedlings were treated as follows. Two fully expanded leaves were dipped into a freshly made 0.1% SILWET L-77® brand surfactant solution in double-distilled water for a few seconds. The leaves were allowed to dry for 30 minutes to 1 hour. Each plant was then treated by applying 20 microliters dsRNA solution to the top surface of two SILWET® brand surfactant-treated leaves (total 40 microliters per plant). Control plants were treated with buffer. The plants were kept in a growth chamber for observation. FIG. 30 depicts the systemic silencing of the target gene PDS as evidenced by bleaching of the dsRNA-treated plants 30 days after topical treatment.

On to `O=C(O)c1ccccc1O` [Salicylic acid], for which, in series [1], the “improvement of the effects of the dsRNAs and glyphosate activity (plant height)” value was “No improvement”.

B1: combination of tiling segments 2, 5, 8, and 11: SEQ ID NOS: 42, 45, 48, 51 applied together (nucleic acid, listed as Amaranthus palmeri)
chain 1: CACCAACCCACTTTCTCTTTGCCCACCAAAACTTTGGTTTGGTAAGAACTAAGCCCTCTTCTTTCCCTTCTCTCTCTTAAAAGCCTAAAATCCACCTAACTTTTTCAGCCAACAAACAACGCCAAATTCAGAGGAAGAATAATGATGGCTCAAGCTACTACCATCAACAATGGTGTCCATACTGGTCAATTGCACCATACTTTACCCAAAACCCAGTTACCCAAATCTTCAAAAACTCTTAATT
chain 2: GAGGGTTGTGGTGGTCTGTTTCCTGTTGGTAAAGATGGAAAGGAAGAGATTCAACTTTTCCTTGGTAATGCAGGAACAGCGATGCGCCCATTGACAGCTGCGGTTGCCGTTGCTGGAGGAAATTCAAGTTATGTGCTTGATGGAGTACCAAGAATGAGGGAGCGCCCCATTGGGGATCTGGTAGCAGGTCTAAAGCAACTTGGTTCAGATGTAGATTGTTTTCTTGGCACAAATTGCCCTCCTGTTCGGG
chain 3: ACAAGCAGTTTACAGGGTGATGTAAAATTTGCCGAAGTTCTTGAGAAGATGGGTTGCAAGGTCACCTGGACAGAGAATAGTGTAACTGTTACTGGACCACCCAGGGATTCATCTGGAAAGAAACATCTGCGTGCTATCGACGTCAACATGAACAAAATGCCAGATGTTGCTATGACTCTTGCAGTTGTTGCCTTGTATGCAGATGGGCCCACCGCCATCAGAGATGTGGCTAGCTGGAGAGTGAAGGAAA
chain 4: TAATTATGAAATTCTTTGTATTATGTTTGTGAGATTTGAAGTAGCTTATAAATTACAATGTACTAAAGTCTAGAAATAAGTTATGTATCTTTTAAATCAATGAGAAATGCATACTTGAAAGGCTTGACCTTGTATTTGTGACCTAAAGAGTACTAACTTTGGAGTTTCCAACTCATTTGTTTATCTCATTTTTTTTTAATTTTTGATTTAAATTGTTTATTTTTATGAGTAATCATGTATCTTTCTTATTCTAACCAAATGTAATACTCCTTC
For the molecule B1, the “efficacy (above-ground height 11 days after herbicide; FIGS. 25B, 25C)” value in series [2] is “greatest efficacy”.

B2: combination of tiling segments 7, 8, and 9: SEQ ID NOS: 47, 48, 49 applied together (nucleic acid, listed as Amaranthus palmeri)
chain 1: TTGAAATGACAATAAAGTTGATGGAACGCTTTGGAGTATCCGTAGAACATAGTGATAGTTGGGACAGGTTCTACATTCGAGGTGGTCAGAAATACAAATCTCCTGGAAAGGCATATGTTGAGGGTGATGCTTCAAGTGCTAGCTACTTCCTAGCCGGAGCCGCCGTCACTGGTGGGACTGTCACTGTCAAGGGTTGTGGAACAAGCAGTTTACAGGGTGATGTAAAATTTGCCGAAGTTCTTGAGAAGAT
chain 2: B1 chain 3
chain 3: AGATGGGCCCACCGCCATCAGAGATGTGGCTAGCTGGAGAGTGAAGGAAACCGAACGGATGATTGCCATTTGCACAGAACTGAGAAAGCTTGGGGCAACAGTTGAGGAAGGATCTGATTACTGTGTGATCACTCCGCCTGAAAAGCTAAACCCCACCGCCATTGAAACTTATGACGATCACCGAATGGCCATGGCATTCTCTCTTGCTGCCTGTGCAGATGTTCCCGTCACTATCCTTGATCCGGGATGC
Take B2: the “efficacy (above-ground height 11 days after herbicide; FIGS. 25B, 25C)” value in series [2] is recorded as “greatest efficacy”.

B3: HPPD anti-sense ssDNA oligonucleotides: 8 HPPD anti-sense ssDNA oligonucleotides (SEQ ID NOS:141-148) (nucleic acid)
antisense 1: TCCGTAGCTTACATACCGAAG
antisense 2: TCCAAGTGAATAGGAGAAACA
antisense 3: AGCAGCTTCTGCGTCTTCTAC
antisense 4: ACAGCACGCACGCCAAGACCG
antisense 5: CGATGTAAGGAATTTGGTAAA
antisense 6: CGAGGGGATTGCAGCAGAAGA
antisense 7: GTAGGAGAATACGGTGAAGTA
antisense 8: GACCCCAAGAAAATCGTCTGC
modifications: DNA, backbone and methylation of C not given here
As for B3, the “growth reduction relative to the buffer-surfactant control” value in series [3] came to 32%.

B4: 201 nucleotide dsRNA polynucleotide: dsRNA to positions 1724-1923 of tomato PDS mRNA (SEQ ID NO:59) (nucleic acid)
chain: TCGCAGCGACTCAGAAATTATTGATGCAACGATGAAGGAACTAGCAACGCTTTTTCCTGATGAAATTTCAGCAGATCAAAGCAAAGCAAAAATATTGAAGTACCATGTTGTCAAAACTCCGAGGTCTGTTTATAAAACTGTGCCAGGTTGTGAACCCTGTCGGCCTTTACAAAGATCCCCAATAGAGGGGTTTTATTTAG
Regarding B4, in series [4], the “growth compared to control plants” value is listed as “severely stunted”. In addition, in series [4] (30 days after treatment), the “systemic silencing of PDS (FIG. 30)” value is on record as “bleaching”.
